Measurements taken from patent US5434135A, “Growth factor compositions, preparation and use” (Parikh; Indu, priority 1993, dated 1995).

Columns and labels:
trypsin [1] = details: 3% trypsin, after one hour
trypsin [2] = experiment: in vitro; details: 1% trypsin
[3] = at one hour
Procedure: At the indicated times aliquots were withdrawn and the amount of intact parent peptide was determined as the area under the curve (AUC) of the A214 (absorbance at 214 nanometers) chromatogram;

CC[C@H](C)[C@@H]1NC(=O)[C@H](Cc2ccc(O)cc2)NC(=O)CNC(=O)[C@H](C(C)C)NC(=O)[C@H](C(C)C)NC(=O)[C@@H](NC(=O)[C@H](CC(N)=O)NC(=O)[C@@H]2CSSC[C@@H]3NC(=O)[C@H](Cc4ccc(O)cc4)NC(=O)CNC(=O)[C@H](CC(=O)O)NC(=O)[C@H](Cc4c[nH]cn4)NC(=O)[C@H](CO)NC(=O)[C@H](CC(C)C)NC(=O)[C@@H]4CCCN4C(=O)[C@@H](NC(=O)[C@H](CCC(=O)O)NC(=O)[C@H](CO)NC(=O)[C@H](CC(=O)O)NC(=O)[C@H](CO)NC(=O)[C@@H](N)CC(N)=O)CSSC[C@H](NC(=O)[C@H](C(C)C)NC(=O)CNC(=O)[C@H](CC(=O)O)NC(=O)[C@H](Cc4c[nH]cn4)NC(=O)[C@H](CC(C)C)NC3=O)C(=O)N[C@@H](CCSC)C(=O)N[C@@H](Cc3ccc(O)cc3)C(=O)N[C@@H]([C@@H](C)CC)C(=O)N[C@@H](CCC(=O)O)C(=O)N[C@@H](C)C(=O)N[C@@H](CC(C)C)C(=O)N[C@@H](CC(=O)O)C(=O)N[C@@H](CCCCN)C(=O)N[C@@H](Cc3ccc(O)cc3)C(=O)N[C@@H](C)C(=O)N2)CSSC[C@@H](C(=O)N[C@@H](CCC(N)=O)C(=O)N[C@@H](Cc2ccc(O)cc2)C(=O)N[C@@H](CCCNC(=N)N)C(=O)N[C@@H](CC(=O)O)C(=O)N[C@@H](CC(C)C)C(=O)N[C@@H](CCCCN)C(=O)N[C@@H](Cc2c[nH]c3ccccc23)C(=O)N[C@@H](Cc2c[nH]c3ccccc23)C(=O)N[C@@H](CCC(=O)O)C(=O)N[C@@H](CC(C)C)C(=O)N[C@@H](CCCNC(=N)N)C(=O)O)NC(=O)[C@H](CCCNC(=N)N)NC(=O)[C@H](CCC(=O)O)NC(=O)CNC1=O [hEGF1-53]
degradation in trypsin (trypsin [1]): 90-100%
metabolised at 1 h (trypsin [2]): ~50%
degradation in gastric fluid [3]: approaching almost complete degradation
